This is an account of results in US20210277066A1 (BRIGHAM AND WOMEN S HOSPITAL, published 2021).

The target in the assay is T1, mouse LY6A (mouse, UniProt P05533 27-112).
T1 construct: whole, on cells; Over-expressed on HEK293T cells
T1 sequence: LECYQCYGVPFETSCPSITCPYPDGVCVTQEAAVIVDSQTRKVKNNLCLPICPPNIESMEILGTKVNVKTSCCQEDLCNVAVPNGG
Kind of assay: AAV binding to LY6A-transfected HEK293T cells on ice; bound viral genomes counted by qPCR.

B1: AAV.CPP.16 (other)
chain: MAADGYLPDWLEDNLSEGIREWWALKPGAPQPKANQQHQDNARGLVLPGYKYLGPGNGLDKGEPVNAADAAALEHDKAYDQQLKAGDNPYLKYNHADAEFQERLKEDTSFGGNLGRAVFQAKKRLLEPLGLVEEAAKTAPGKKRPVEQSPQEPDSSAGIGKSGAQPAKKRLNFGQTGDTESVPDPQPIGEPPAAPSGVGSLTMASGGGAPVADNNEGADGVGSSSGNWHCDSQWLGDRVITTSTRTWALPTYNNHLYKQISNSTSGGSSNDNAYFGYSTPWGYFDFNRFHCHFSPRDWQRLINNNWGFRPKRLNFKLFNIQVKEVTDNNGVKTIANNLTSTVQVFTDSDYQLPYVLGSAHEGCLPPFPADVFMIPQYGYLTLNDGSQAVGRSSFYCLEYFPSQMLRTGNNFQFSYEFENVPFHSSYAHSQSLDRLMNPLIDQYLYYLSKTINGSGQNQQTLKFSVAGPSNMAVQGRNYIPGPSYRQQRVSTTVTQNNNSEFAWPGASSWALNGRNSLMNPGPAMASHKEGEDRFFPLSGSLIFGKQGTGRDNVDADKVMITNEEEIKTTNPVATESYGQVATNHQSAQTVSALKAQAQTGWVQNQGILPGMVWQDRDVYLQGPIWAKIPHTDGNFHPSPLMGGFGMKHPPPQILIKNTPVPADPPTAFNKDKLNSFITQYSTGQVSVEIEWELQKENSKRWNPEIQYTSNYYKSNNVEFAVNTEGVYSEPRPIGTRYLTRNL
notes: Tested as a whole recombinant AAV particle (rAAV-mCherry); also called Bip2.1 insert TVSALK
As to B1, the binding result is “no binding (tested: MOI of 10000)”.

B2: AAV.CPP.21 (other)
chain: MAADGYLPDWLEDNLSEGIREWWALKPGAPQPKANQQHQDNARGLVLPGYKYLGPGNGLDKGEPVNAADAAALEHDKAYDQQLKAGDNPYLKYNHADAEFQERLKEDTSFGGNLGRAVFQAKKRLLEPLGLVEEAAKTAPGKKRPVEQSPQEPDSSAGIGKSGAQPAKKRLNFGQTGDTESVPDPQPIGEPPAAPSGVGSLTMASGGGAPVADNNEGADGVGSSSGNWHCDSQWLGDRVITTSTRTWALPTYNNHLYKQISNSTSGGSSNDNAYFGYSTPWGYFDFNRFHCHFSPRDWQRLINNNWGFRPKRLNFKLFNIQVKEVTDNNGVKTIANNLTSTVQVFTDSDYQLPYVLGSAHEGCLPPFPADVFMIPQYGYLTLNDGSQAVGRSSFYCLEYFPSQMLRTGNNFQFSYEFENVPFHSSYAHSQSLDRLMNPLIDQYLYYLSKTINGSGQNQQTLKFSVAGPSNMAVQGRNYIPGPSYRQQRVSTTVTQNNNSEFAWPGASSWALNGRNSLMNPGPAMASHKEGEDRFFPLSGSLIFGKQGTGRDNVDADKVMITNEEEIKTTNPVATESYGQVATNHQSAQTVSALFKAQAQTGWVQNQGILPGMVWQDRDVYLQGPIWAKIPHTDGNFHPSPLMGGFGMKHPPPQILIKNTPVPADPPTAFNKDKLNSFITQYSTGQVSVEIEWELQKENSKRWNPEIQYTSNYYKSNNVEFAVNTEGVYSEPRPIGTRYLTRNL
notes: Tested as a whole recombinant AAV particle (rAAV-mCherry); also called Bip2.6 insert TVSALFK
As to B2, the binding result is recorded as “no binding (tested: MOI of 10000)”.
